Source: the supplement of paper PMC7877785
± gives the uncertainty stated by the source.

Assay: self-splicing fitness, log relative to wild type (ln ratio); higher = more splicing; Tetrahymena group I intron in knt gene, E. coli kanamycin selection, DiMSum; sequences stand for … in CUCUCU…GGAGGGAAAAGUUAUCAGGCAUGCACCUGGUAGCUAGUCUUUAAACCAAUAGAUUGCAUCGGUUUAAAAGGCAAGACCGUCAAAUUGCGGGAAAGGGGUCAACAGCCGUUCAGUACCAAGUCUCAGGGGAAACUUUGAGAUGGCCUUGCAAAGGGUAUGGUAAUAAGCUGACGGACAUGGUCCUAACCACGCAGCCAAGUCCUAAGUCAACAGAUCUUCUGUUGAUAUGGAUGCAGUUCACAGACUAAAUGUCGGUCGGGGAAGAUGUAUUCUUCUCAUAAGAUAUAGUCGGACCUCUCCUUAAUGGGAGCUAGCGGAUGAAGUGAUGCAACACUGGAGCCGCUGGGAACUAAUUUGUAUGCGAAAGUAUAUUGAUUAGUUUUGGAGUACUCGUGGUCG
Method in brief: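 Colonies from six replicate transformations of E. coli BL21(DE3) were pooled and amplicon-sequenced on an Illumina HiSeq 2500. The library placed an intron with all eight P1ex-region nucleotides randomised inside the knt kanamycin-resistance gene on pET-22b(+), and cells grew overnight at 37°C or 30°C on LB agar with or without 25 μg/mL kanamycin (plus 100 μg/mL carbenicillin, 50 μM IPTG, 0.2% rhamnose). Fitness is the DiMSum error-weighted combination of wild-type-normalised replicate fold changes, kanamycin versus none.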

| Sequence | self-splicing fitness (ln) (30 °C) | self-splicing fitness (ln) (37 °C) |
| --- | --- | --- |
| CAAUAGCAAUAUUACGAGAG | -3.64 ± 0.23 | -1.52 ± 0.12 |
| CAAUAGCAAUAUUACGAUCA | -2.41 ± 0.17 | -2.17 ± 0.16 |
| CAAUAGCAAUAUUACGAUGC | -3.6 ± 0.24 | -2.23 ± 0.23 |
| CAAUAGCAAUAUUACGAUUG | -3.32 ± 0.17 | -1.9 ± 0.16 |
| CAAUAGCAAUAUUACGCCAC | -2.84 ± 0.28 | – |
| CAAUAGCAAUAUUACGCGAG | -1.76 ± 0.086 | -0.754 ± 0.096 |
| CAAUAGCAAUAUUACGCGGU | -3.88 ± 0.19 | -3.12 ± 0.2 |
| CAAUAGCAAUAUUACGCUCA | -0.892 ± 0.11 | -1.73 ± 0.14 |
| CAAUAGCAAUAUUACGGACU | -4.49 ± 0.34 | -2.11 ± 0.23 |
| CAAUAGCAAUAUUACGGAGG | -1.16 ± 0.07 | -1.26 ± 0.11 |
| CAAUAGCAAUAUUACGGAGU | -4.14 ± 0.43 | -2.04 ± 0.25 |
| CAAUAGCAAUAUUACGGGAG | -2.53 ± 0.085 | -2 ± 0.09 |
| CAAUAGCAAUAUUACGGUAA | -2.8 ± 0.14 | -2.81 ± 0.18 |
| CAAUAGCAAUAUUACGGUUC | -3.3 ± 0.48 | – |
| CAAUAGCAAUAUUACGUACA | -3.18 ± 0.4 | -1.82 ± 0.25 |
| CAAUAGCAAUAUUACGUGGC | -3.53 ± 0.16 | -2.72 ± 0.2 |
| CACAAGCAAUAUUACGAACG | -0.561 ± 0.055 | 0.286 ± 0.079 |
| CACAAGCAAUAUUACGAAGA | -2.71 ± 0.18 | -2.36 ± 0.2 |
| CACAAGCAAUAUUACGACAC | -3.12 ± 0.11 | -2.59 ± 0.12 |
| CACAAGCAAUAUUACGACAU | -3.32 ± 0.017 | -1.99 ± 0.033 |
| CACAAGCAAUAUUACGACCA | -1.19 ± 0.16 | -1.05 ± 0.16 |
| CACAAGCAAUAUUACGAGAA | -2.29 ± 0.31 | -2.41 ± 0.34 |

| Sequence | self-splicing fitness (ln) (30 °C) | self-splicing fitness (ln) (37 °C) |
| --- | --- | --- |
| CACAAGCAAUAUUACGAGCG | -0.656 ± 0.099 | 0.331 ± 0.1 |
| CACAAGCAAUAUUACGAGUG | -4.41 ± 0.15 | -2.02 ± 0.12 |
| CACAAGCAAUAUUACGAUGC | -4.12 ± 0.31 | -2.69 ± 0.27 |
| CACAAGCAAUAUUACGCCAC | – | -1.43 ± 0.43 |
| CACAAGCAAUAUUACGCCGC | -2.66 ± 0.28 | -2.34 ± 0.37 |
| CACAAGCAAUAUUACGCGCC | -3.41 ± 0.26 | -1.32 ± 0.16 |
| CACAAGCAAUAUUACGCGUU | -2.55 ± 0.098 | -1.3 ± 0.091 |
| CACAAGCAAUAUUACGCUAU | -4.42 ± 0.26 | -1.58 ± 0.14 |
| CACAAGCAAUAUUACGCUCU | -3.04 ± 0.24 | -1.38 ± 0.17 |
| CACAAGCAAUAUUACGCUGA | -2.12 ± 0.12 | -1.72 ± 0.12 |
| CACAAGCAAUAUUACGGCGA | -1.3 ± 0.092 | -0.406 ± 0.087 |
| CACAAGCAAUAUUACGGCUG | -1.54 ± 0.072 | -0.213 ± 0.087 |
| CACAAGCAAUAUUACGGCUU | -3.67 ± 0.19 | -2.98 ± 0.23 |
| CACAAGCAAUAUUACGGGGA | -2.64 ± 0.11 | -1.69 ± 0.1 |
| CACAAGCAAUAUUACGGUUA | -1.01 ± 0.076 | -0.918 ± 0.078 |
| CACAAGCAAUAUUACGGUUG | -2.5 ± 0.1 | -1.59 ± 0.12 |
| CACAAGCAAUAUUACGUAGG | -1.23 ± 0.056 | -0.693 ± 0.082 |
| CACAAGCAAUAUUACGUAUA | -2.66 ± 0.13 | -2.67 ± 0.16 |
| CACAAGCAAUAUUACGUCAC | -3.24 ± 0.19 | -2.62 ± 0.22 |
| CACAAGCAAUAUUACGUCUA | -1.42 ± 0.087 | -1.26 ± 0.084 |
| CACAAGCAAUAUUACGUUAU | -2.95 ± 0.098 | -2.7 ± 0.11 |
